# In doi:10.1101/2022.05.21.492920:
# Molecular target: SARS-CoV-2 S (Acro Biosystems), unlabelled (SARS-CoV-2) (UniProt P0DTC2)
# Assay: SPR; Biacore, CM5 chip; S covalently immobilised at pH 4.0 (about 8500 RU); ERα, ACE2 or NRP1 injected at 1.56 to 200 nM; global fit to a single site binding model
substance,measurement,value
"recombinant NRP1 (Acro Biosystems), analyte in SPR (from UniProt O14786 22-856) (natural protein)",Kd,89.4 nM
"ERα-full length (InVitrogen), analyte in SPR (from UniProt P03372 1-595) (receptor)",Kd,9.7 nM
